This test has as its target HLA class I. The test can be described thus: cell-based or functional assay.

W6/32, the class I-specific antibody had a reduction in HIV-1 envelope-specific CTL activity (PBMCs from LB as effector cells, E:T 25:1, 1:4 dilution of W6/32 hybridoma supernatant) of 73%; a specific lysis value with W6/32 (PBMCs from LB, E:T 25:1) of 6.2%; a specific lysis value without W6/32 (PBMCs from LB, E:T 25:1) of 23.2%.

Source of the values: US20050032039A1.
